Experimental data reported in paper PMC4326362, “Non-canonical regulation of phosphatidylinositol 3-kinase gamma isoform activity in retinal rod photoreceptor cells” (Cell Communication and Signaling : CCS, 2015).
Residue numbers refer to the chain shown, from its start.

Columns and labels:
Experiment in all cases: co-IP; Flag-tagged CTR-CNGA1 (wild type or mutant) and Myc-tagged RA domains co-expressed in HEK-293T cells; reciprocal immunoprecipitation with anti-Flag or anti-Myc antibodies (IgG as control), immunoblot, densitometry
Details in all cases: partners not purified
CTR-CNGA1 (D577N) = target: T1, CTR-CNGA1 (D577N) (UniProt Q00194 483-690, D577N)
T1 construct: CNGA1 C-terminal region, residues 483-690, with D577N; Mutant of m1 made by site-directed mutagenesis; source: HEK-293T, transfected (pCDNA3), in lysate; not shown: FLAG, N-terminal, kept
T1 sequence (looked up): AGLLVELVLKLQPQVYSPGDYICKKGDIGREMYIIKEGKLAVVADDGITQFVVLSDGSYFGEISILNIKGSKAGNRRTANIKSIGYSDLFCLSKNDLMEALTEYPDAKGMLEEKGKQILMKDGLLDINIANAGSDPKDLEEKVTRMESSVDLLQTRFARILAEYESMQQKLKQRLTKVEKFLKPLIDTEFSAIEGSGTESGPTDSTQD

CTR-CNGA1 (E581Q) = target: T2, CTR-CNGA1 (E581Q) (UniProt Q00194 483-690, E581Q)
T2 construct: CNGA1 C-terminal region, residues 483-690, with E581Q; Mutant of m1 made by site-directed mutagenesis; source: HEK-293T, transfected (pCDNA3), in lysate; not shown: FLAG, N-terminal, kept
T2 sequence (looked up): T1 sequence (looked up) with N95D, E99Q

CTR-CNGA1 (D577,578 N) = target: T3, CTR-CNGA1 (D577,578 N) (UniProt Q00194 483-690, D577,578 N | D577,578 N)
T3 construct: CNGA1 C-terminal region, residues 483-690, with D577N and D578N; Mutant of m1 made by site-directed mutagenesis; source: HEK-293T, transfected (pCDNA3), in lysate; not shown: FLAG, N-terminal, kept
T3 sequence (looked up): T1 sequence (looked up) with D96N

percent disruption of the interaction against wild type (CTR-CNGA1 (D577N)): 30 percent
percent disruption of the interaction against wild type (CTR-CNGA1 (E581Q)): 50 percent
percent disruption of the interaction against wild type (CTR-CNGA1 (D577,578 N)): 45 percent
B1: Myc-tagged RA domain of PI3Kγ (residues 141-311) (domain or fragment, UniProt P48736 141-311, looked up)
chain: HPPSEESQAFQRQLTALIGYDVTDVSNVHDDELEFTRRGLVTPRMAEVASRDPKLYAMHPWVTSKPLPEYLWKKIANNCIFIVIHRSTTSQTIKVSPDDTPGAILQSFFTKMAKKKSLMDIPESQSEQDFVLRVCGRDEYLVGETPIKNFQWVRHCLKNGEEIHVVLDTPP
notes: also called RA-PI3Kγ; PI3Kγ-RA; source: HEK-293T, transfected (pCDNA3), in lysate
